# Laboratory results: the supplement of paper PMC9112550, “Optimization of the antimicrobial peptide Bac7 by deep mutational scanning” (BMC Biology, 2022)
# Test system: Escherichia coli TOP10
# Experiment: shrunken log2 fold change of peptide-encoding DNA abundance (4.5 h post-induction vs induction); higher = less antimicrobial activity (less host growth inhibition)
# Details: time post-induction: 4.5 h; library: site-saturation at positions 5, 18, 19, 20
# 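Further: peptides expressed intracellularly from a pBAD plasmid library in pooled LB shake-flask culture, induced with 0.3% L-arabinose, DNA abundance read by NGS, three biological replicates, DESeq2 with apeglm shrinkage.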
row,Sequence,shrunken log2 fold change
1,RRIRPRPPRLPRPRPRPKVGPRP,0.172
2,RRIRYRPPRLPRPRPRPPARPRP,0.119
3,RRIRMRPPRLPRPRPRPPESPRP,2.5
4,RRIRLRPPRLPRPRPRPADNPRP,-0.26
5,RRIRCRPPRLPRPRPRPNQYPRP,-0.92
6,RRIRTRPPRLPRPRPRPEDCPRP,0.0288
7,RRIRRRPPRLPRPRPRPWKLPRP,-0.0807
8,RRIRPRPPRLPRPRPRPSQLPRP,-0.0897
9,RRIRWRPPRLPRPRPRPVCAPRP,0.553
10,RRIRARPPRLPRPRPRPVPAPRP,0.814
11,RRIRDRPPRLPRPRPRPSRVPRP,0.0593
12,RRIRLRPPRLPRPRPRPAKFPRP,0.0249
13,RRIRVRPPRLPRPRPRPHMIPRP,-0.463
14,RRIRHRPPRLPRPRPRPHRLPRP,-0.0453
15,RRIRTRPPRLPRPRPRPEDYPRP,-0.00822
16,RRIRSRPPRLPRPRPRPPNYPRP,-0.606
17,RRIRWRPPRLPRPRPRPVLKPRP,0.637
18,RRIRQRPPRLPRPRPRPTVYPRP,0.079
19,RRIRLRPPRLPRPRPRPEHVPRP,-0.0237
20,RRIRIRPPRLPRPRPRPCVQPRP,1.47
21,RRIRRRPPRLPRPRPRPNAGPRP,0.0188
22,RRIRVRPPRLPRPRPRPITSPRP,-0.21
23,RRIRMRPPRLPRPRPRPGIWPRP,0.379
24,RRIRERPPRLPRPRPRPDVIPRP,-0.502
25,RRIRYRPPRLPRPRPRPHTWPRP,-0.0877

row,Sequence,shrunken log2 fold change
1,RRIRCRPPRLPRPRPRPQWKPRP,-0.0376
2,RRIRDRPPRLPRPRPRPPFPPRP,0.206
3,RRIRHRPPRLPRPRPRPIGDPRP,-0.00136
4,RRIRQRPPRLPRPRPRPPVRPRP,0.739
5,RRIRMRPPRLPRPRPRPTYGPRP,-0.00932
6,RRIRKRPPRLPRPRPRPWKGPRP,0.0195
7,RRIRSRPPRLPRPRPRPVLLPRP,-0.315
8,RRIRDRPPRLPRPRPRPHAWPRP,0.1
9,RRIRKRPPRLPRPRPRPAMLPRP,0.292
10,RRIRCRPPRLPRPRPRPYCRPRP,-0.0628
11,RRIRPRPPRLPRPRPRPGRLPRP,-0.0937
12,RRIRHRPPRLPRPRPRPLVSPRP,0.0121
13,RRIRGRPPRLPRPRPRPSGEPRP,0.598
14,RRIRMRPPRLPRPRPRPILDPRP,-0.0606
15,RRIRNRPPRLPRPRPRPMVSPRP,-0.145
16,RRIRERPPRLPRPRPRPRYDPRP,-0.246
17,RRIRCRPPRLPRPRPRPYEPPRP,-0.151
18,RRIRWRPPRLPRPRPRPHFVPRP,-0.438
19,RRIRPRPPRLPRPRPRPDTQPRP,-0.371
20,RRIRARPPRLPRPRPRPQICPRP,0.176
21,RRIRWRPPRLPRPRPRPFLQPRP,-0.499
22,RRIRVRPPRLPRPRPRPRMGPRP,1.86
23,RRIRFRPPRLPRPRPRPNAQPRP,0.0328
24,RRIRCRPPRLPRPRPRPNWVPRP,-0.279
25,RRIRYRPPRLPRPRPRPQHCPRP,-0.0601

row,Sequence,shrunken log2 fold change
1,RRIRERPPRLPRPRPRPYEIPRP,0.0169
2,RRIRQRPPRLPRPRPRPIPCPRP,-0.244
3,RRIRVRPPRLPRPRPRPRWAPRP,0.343
4,RRIRKRPPRLPRPRPRPQVMPRP,-0.162
5,RRIRERPPRLPRPRPRPMTTPRP,-0.023
6,RRIRHRPPRLPRPRPRPRPAPRP,0.479
7,RRIRHRPPRLPRPRPRPWACPRP,-0.051
8,RRIRDRPPRLPRPRPRPCVPPRP,-0.135
9,RRIRYRPPRLPRPRPRPGTQPRP,-0.141
10,RRIRDRPPRLPRPRPRPDFQPRP,0.189
11,RRIRQRPPRLPRPRPRPRFCPRP,-0.16
12,RRIRGRPPRLPRPRPRPRTQPRP,0.826
13,RRIRVRPPRLPRPRPRPEARPRP,0.389
14,RRIRTRPPRLPRPRPRPFIFPRP,-0.447
15,RRIRFRPPRLPRPRPRPLFWPRP,0.201
16,RRIRHRPPRLPRPRPRPMKMPRP,0.043
17,RRIRVRPPRLPRPRPRPEFEPRP,-0.0823
18,RRIRSRPPRLPRPRPRPHVPPRP,-0.149
19,RRIRCRPPRLPRPRPRPDDGPRP,-0.0952
20,RRIRVRPPRLPRPRPRPVTVPRP,-0.0359
21,RRIRTRPPRLPRPRPRPREYPRP,-0.00842
22,RRIRKRPPRLPRPRPRPRVDPRP,0.0968
23,RRIRPRPPRLPRPRPRPFFVPRP,0.064
24,RRIRSRPPRLPRPRPRPNQLPRP,-0.218
25,RRIRNRPPRLPRPRPRPYIMPRP,-0.741
